We go through one protein from PMC3583661 (Molecular Biology of the Cell, 2013).

The data set deals with the molecule itself. In words: co-IP.

B1: Slk19 (recombinant; Slk19-HA-His and Slk19-Myc-His) (natural protein, budding yeast, UniProt Q08581 1-821, looked up)
chain: MNEVPTTPVRLILGQAQQREQNSENCSQERNPRTFNSEPDSSFNSPGSSQFVIHPHEPLEKEKDEKQDLDRSIDYGRSSALNNKNNANPLENIDINKMFDDKKSDSGTNDDKGGASTSDKHVLALNYSPIRVEMNSSEKRSDKNVDVDENDKEGSHINKKLKLQLESVPDLKQSSTKDIINDKEEIMSSPMAIDMIETNISPNKFIINDGVERNDSFNINTDTLKLENDINEKQQEEDFIKSNSNNVVNIDNAYKEKEDEENDITNSHINRLTPLYETSARESNSNEEGRNDYDDDNQLDIRHDNFQIVAKRNEELTDQIYHLNQMLNSLISKNESLSFQYEKLNKNHQLLIDLTNEKLDKLNTERESDIAKVEKFKKRIKELNTEIKVLNSNQKILQEKFDASITEVNHIKGEHENTVNTLQQNEKILNDKNVELENMKAELKGNNDKLSEYETTLNDLNSRIVQLNDKIESTDIVLKSKENELDNLKLSLKETLSISKDFNDSDLIGQINELISTKNNLQQKMDDLNNLNDDNLKVVQDKLIKNEETLKLKEAEIDSLNSEMDELKKQITSKDDEFKMWQSKYETVEDEAKIRNAEVTELNGDIEDLKESKLHLEETITELENKVHKLENECELEKQKFEKTSLELESLQLKNSNIQAEHIKELENLHENLISLQNELKISSDRITTLTKENEVLMEQNNNNNNSVTLSNDQKDRDDEKIKSLGKQVQDWKEKYEAKEKDTNKRLKLLAEDLYIQYSSKHEQKVKLLKKGYENKYQNKFDQLNLENKTLSEEIEQLNKQLSSEREEKQELLKLLENEKK
Regarding B1, the binding result is “binds”.
